Laboratory results published in article PMC10121561, “Control of a hippocampal recurrent excitatory circuit by cannabinoid receptor-interacting protein Gap43” (Nature Communications, 2023).
Residue numbers refer to the chain shown, from its start. Names and notes keep the numbering of the source.

T1: hGAP43 (purified, unlabeled human growth-associated protein of 43 kDa) (human, UniProt P17677 1-238)
T1 construct: growth-associated protein of 43 kDa (GAP43, neuromodulin), human; also called unlabeled GAP43; neuromodulin; source: purified (details in Supplementary Methods)
T1 sequence (looked up): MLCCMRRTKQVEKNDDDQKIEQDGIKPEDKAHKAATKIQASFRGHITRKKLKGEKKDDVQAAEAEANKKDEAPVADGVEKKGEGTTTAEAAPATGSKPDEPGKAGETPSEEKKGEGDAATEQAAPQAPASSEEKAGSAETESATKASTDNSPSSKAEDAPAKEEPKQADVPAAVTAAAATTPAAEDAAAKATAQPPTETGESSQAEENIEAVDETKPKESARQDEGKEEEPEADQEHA

B1: 5-(iodoacetamido)fluorescein-labeled hCB1R-CTD (domain or fragment, human, UniProt P21554 408-472, looked up)
chain: FRSMFPSCEGTAQPLDNSMGDSDCLHKHANNAASVHRAAESCIKSTVKIAKVTMSVSTDTSAEAL
modifications: also: 5-(iodoacetamido)fluorescein label, position not given here
notes: type-1 cannabinoid receptor (CB1R), human, C-terminal intracellular domain, amino acids 408-472; protein expression and purification are in the Supplementary Methods; also called 5-IAF-labeled CB1R-CTD; source: purified (recombinant; details in Supplementary Methods)
B2: GFP-GAP43(WT) (natural protein, UniProt P17677 1-238, looked up)
chain: T1 sequence (looked up)
notes: growth-associated protein of 43 kDa (GAP43), wild type; In the co-IP and DMR experiments the text writes GAP43(WT) without GFP; source: HEK293T, transfected, in cells or lysate
B3: GFP-GAP43(S41D) (natural protein, UniProt P17677 1-238, looked up)
chain: T1 sequence (looked up) with S41D
notes: growth-associated protein of 43 kDa (GAP43) with the phospho-mimetic point mutation S41D; In the co-IP and DMR experiments the text writes GAP43(S41D) without GFP; also called phospho-mimetic GAP43; source: HEK293T, transfected, in cells or lysate

Tests used:
[1] = target: CB1R (type-1 cannabinoid receptor) (UniProt P21554); assay: BRET saturation, CB1R-RLuc and GFP-GAP43; settings: reference: GFP-GAP43 wild type; sites S41
[2] = target: T1, hGAP43 (purified, unlabeled human …); assay: fluorescence polarisation; fixed concentration of 5-IAF-labeled hCB1R-CTD, increasing concentrations of unlabeled hGAP43; 3 independent experiments; settings: both partners purified
RLuc-tagged CB1R = target: T2, RLuc-tagged CB1R (UniProt P21554 1-472); assay: FRET or BRET; BRET saturation in live HEK293T cells expressing CB1R-RLuc and increasing amounts of GFP-GAP43 forms; 3 independent experiments; settings: partners not purified
T2 construct: type-1 cannabinoid receptor (CB1R); also called CB1R-RLuc; source: HEK293T, transfected, in live cells

Molecule | BRET50 (RLuc/GFP ratio that gives half-maximal BRET effect) (RLuc-tagged CB1R) | further results
GAP43 (growth-associated protein of 43 kDa; neuromodulin) (from UniProt P17677) GFP-GAP43 S41D |  | other: BRET50 (RLuc/GFP ratio giving half-maximal BRET) [1]: stronger; reference 15.18 ± 4.53
B1 |  | Kd [2]: 38.2 µM
B2 | 15.2 | 
B3 | 7.08 | 
